Experimental findings from patent CN115057938A (dated 2022) are described below.

This assay deals with T1, Delta变异株SARS-COV-2 RBD蛋白(Ag101) (SARS-COV-2 Delta变异株, UniProt P0DTC2 319-541).
T1 construct: domain: RBD; also called Delta variant SARS-COV-2 RBD protein
Nature of the assay: competition ELISA: Delta RBD coated, blocks ACE2 binding. A general note: An ELISA detects its analyte on a solid surface through an enzyme-linked reagent.

B1: R1463 (VHH)
VHH: QVQLVESGGGVVQPGGSLRLSCTCSRCTFNWDGMGWFRQAPGKGLEFVATISWSGQEPAYADSVKGRFTISRDNSKNTLYLQMTSLRAEDTAVYYCAAAQYTGASYSILRDQVGYDYWGQGTLVTVSS
notes: also called RX017 VHH-His标签; 对照
For B1, the IC50 (usually the point on the concentration scale where inhibition reaches its midpoint) was determined as 18.1 pM. That is a picomolar value.

B2: R1475 (VHH, not shown: small tags and cut ends)
VHH 1: B1 VHH
VHH 2: B1 VHH
notes: also called 人源化多价结合蛋白 R1475; VHH-Linker-VHH-His标签
With B2, the concentration for half-maximal inhibition (IC50) was determined as 3.34 pM.

B3: R1464 (VHH, not shown: small tags and cut ends)
chain (part 1 of 3): HHHHHHQVQLVESGGGVVQPGGSLRLSCTCSRCTFNWDGMGWFRQAPGKGLEFVATISWSGQEPAYADSVKGRFTISRDNSKNTLYLQMTSLRAEDTAVYYCAAAQYTGASYSILRDQVGYDYWGQGTLVTVSS
chain (part 2 of 3): B1 VHH
chain (part 3 of 3): B1 VHH
notes: also called 人源化多价结合蛋白 R1464; His标签-VHH-Linker-VHH-Linker-VHH
Molecule B3 registered a concentration for half-maximal inhibition (IC50) of 4.32 pM.
